T1: Bet1 1-118 (yeast, UniProt P22804 1-118)
T1 construct: Bet1, yeast ER-to-Golgi Qc-SNARE, residues 1-118 (not only the SNARE domain); also called Qc-SNARE; source: E. coli BL21 (DE3), purified (Ni2+-NTA, ion exchange)
T1 sequence (looked up): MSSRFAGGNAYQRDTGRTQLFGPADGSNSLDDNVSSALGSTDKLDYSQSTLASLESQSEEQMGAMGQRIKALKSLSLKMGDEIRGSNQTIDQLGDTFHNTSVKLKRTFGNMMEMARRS

T2: Sed5 211-320 (SNARE domain) (yeast, UniProt Q01590 211-320)
T2 construct: Sed5, yeast ER-to-Golgi Qa-SNARE, SNARE domain, residues 211-320; also called Qa-SNARE; source: E. coli BL21 (DE3), purified (Ni2+-NTA, ion exchange)
T2 sequence (looked up): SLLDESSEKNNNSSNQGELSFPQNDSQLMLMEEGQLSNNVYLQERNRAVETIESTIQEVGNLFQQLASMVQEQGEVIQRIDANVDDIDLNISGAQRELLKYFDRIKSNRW


How the values were obtained:
[1] = biological target: the molecule itself; test: SEC; individual purified SNARE domains of the Bos1 variants (oligomeric state of single proteins); Superdex 75, PBS with 200 mM NaCl
Bet1 1-118 [2] = biological target: T1, Bet1 1-118; test: fluorescence polarisation; fluorescence anisotropy over time; 500 nM OG-labelled Sec22 126-186 C131OG mixed with 2.7 uM Sed5 211-320, Bet1 1-118 and Bos1 151-221 or its mutants; PBS, 25°C; details: both partners purified
[3] = biological target: T2, Sed5 211-320 (SNARE domain); test: SEC; quaternary SNARE complexes assembled from equal amounts of purified Sed5 (211-320), Bet1 (1-118), Sec22 (126-186) and one Bos1 (151-221) variant, incubated overnight; Superdex 75, PBS with 200 mM NaCl; details: both partners purified
Bet1 1-118 [4] = biological target: T1, Bet1 1-118; test: as above; details: both partners purified
[5] = biological target: T2, Sed5 211-320 (SNARE domain); test: fluorescence polarisation; fluorescence anisotropy over time; 500 nM OG-labelled Sec22 126-186 C131OG mixed with 2.7 uM Sed5 211-320, Bet1 1-118 and Bos1 151-221 or its mutants; PBS, 25°C; details: both partners purified

| Binder | binding result [1] | binding result (Bet1 1-118 [2]) | binding result [3] | binding result (Bet1 1-118 [4]) | binding result [5] |
| --- | --- | --- | --- | --- | --- |
| Bos1 151-221 wild type (SNARE domain) (domain or fragment, Saccharomyces cerevisiae, UniProt P25385 151-221, looked up, Bos1, Saccharomyces cerevisiae, SNARE domain, residues 151-221; Forms homo-oligomers of unstated size as the isolated SNARE domain; also called Bos1 wt; wild-type Bos1; source: E. coli BL21 (DE3), purified (Ni2+-NTA, ion exchange)) LYQGLQKEQSVFERGNAQLDYILEMGQQSFENIVEQNKILSKVQDRMSNGLRTLGVSEQTITSINKRVFKD | binds | binds | binds | – | – |
| Bos1 151-221 p.Gly176Asp (domain or fragment, Saccharomyces cerevisiae, UniProt P25385 151-221, looked up, Bos1, Saccharomyces cerevisiae, SNARE domain, residues 151-221, with the designed Gly176Asp mutation; also called Bos1 p.Gly176Asp; source: E. coli BL21 (DE3), purified (Ni2+-NTA, ion exchange)) LYQGLQKEQSVFERGNAQLDYILEMDQQSFENIVEQNKILSKVQDRMSNGLRTLGVSEQTITSINKRVFKD | binds | – | binds | binds | – |
| Bos1 151-221 p.Gly176Trp (domain or fragment, Saccharomyces cerevisiae, UniProt P25385 151-221, looked up, Bos1, Saccharomyces cerevisiae, SNARE domain, residues 151-221, with Gly176Trp (orthologous to GOSR2 p.Gly144Trp); also called Bos1 p.Gly176Trp; source: E. coli BL21 (DE3), purified (Ni2+-NTA, ion exchange)) LYQGLQKEQSVFERGNAQLDYILEMWQQSFENIVEQNKILSKVQDRMSNGLRTLGVSEQTITSINKRVFKD | – | binds | – | – | binds |
| Bos1 151-221 p.Arg196del (domain or fragment, Saccharomyces cerevisiae, UniProt P25385 151-221, looked up, Bos1, Saccharomyces cerevisiae, SNARE domain, residues 151-221, with arginine 196 deleted (orthologous to GOSR2 p.Lys164del); also called Bos1 p.Arg196del; source: E. coli BL21 (DE3), purified (Ni2+-NTA, ion exchange)) LYQGLQKEQSVFERGNAQLDYILEMGQQSFENIVEQNKILSKVQDMSNGLRTLGVSEQTITSINKRVFKD | binds | – | binds | binds | – |

— publication PMC5769602, “Functional assays for the assessment of the pathogenicity of variants of GOSR2, an ER-to-Golgi SNARE involved in progressive myoclonus epilepsies” (Disease Models & Mechanisms, 2017)
